Values joined by “and” are separate entries in the source; they are usually repeats but may differ in a detail not shown here. Equal entries are not always repeated.
B1: MBP-Ino80INS (insertion domain of the Ino80 ATPase, residues 1022-1294, MBP fusion with C-terminal histidine tag) (domain or fragment, yeast, UniProt P53115 1022-1294, looked up)
chain: VDSPFSFTTFGKTTSMLTASVANNNSSVISNSNMNLSSMSSNNISNGKFTDLIYSSRNPIKYSLPRLIYEDLILPNYNNDVDIANKLKNVKFNIFNPSTNYELCLFLSKLTGEPSLNEFFRVSTTPLLKRVIERTNGPKNTDSLSFKTITQELLEVTRNAPSEGVMASLLNVEKHAYEREYLNCIQRGYHPNVSAPPVTIEVLGSSHVTNSINNELFDPLISQALSDIPAITQYNMHVKKGIPVEDFPKTGLFPEPLNKNFSSNISMPSMDRF
B2: Rvb1 (enzyme, S. cerevisiae, UniProt Q03940 1-463, looked up)
chain: MVAISEVKENPGVNSSNSGAVTRTAAHTHIKGLGLDESGVAKRVEGGFVGQIEAREACGVIVDLIKAKKMSGRAILLAGGPSTGKTALALAISQELGPKVPFCPLVGSELYSVEVKKTETLMENFRRAIGLRIKETKEVYEGEVTELTPEDAENPLGGYGKTISHVIVGLKSAKGTKTLRLDPTIYESIQREKVSIGDVIYIEANTGAVKRVGRSDAYATEFDLETEEYVPLPKGEVHKKKEIVQDVTLHDLDVANARPQGGQDVISMMGQLLKPKKTEITEKLRQEVNKVVAKYIDQGVAELIPGVLFIDEVNMLDIEIFTYLNKALESNIAPVVVLASNRGMTTVRGTEDVISPHGVPPDLIDRLLIVRTLPYDKDEIRTIIERRATVERLQVESSALDLLATMGTETSLRYALQLLAPCGILAQTSNRKEIVVNDVNEAKLLFLDAKRSTKILETSANYL

How the values were obtained:
[1] = biological target: T1, Rvb1/Rvb2 complex (untagged hexamer) (S. cerevisiae, UniProt Q03940 1-463; Q12464 1-471); assay: SEC-MALS
T1 sequence (Q12464 whole entry, one chain of several): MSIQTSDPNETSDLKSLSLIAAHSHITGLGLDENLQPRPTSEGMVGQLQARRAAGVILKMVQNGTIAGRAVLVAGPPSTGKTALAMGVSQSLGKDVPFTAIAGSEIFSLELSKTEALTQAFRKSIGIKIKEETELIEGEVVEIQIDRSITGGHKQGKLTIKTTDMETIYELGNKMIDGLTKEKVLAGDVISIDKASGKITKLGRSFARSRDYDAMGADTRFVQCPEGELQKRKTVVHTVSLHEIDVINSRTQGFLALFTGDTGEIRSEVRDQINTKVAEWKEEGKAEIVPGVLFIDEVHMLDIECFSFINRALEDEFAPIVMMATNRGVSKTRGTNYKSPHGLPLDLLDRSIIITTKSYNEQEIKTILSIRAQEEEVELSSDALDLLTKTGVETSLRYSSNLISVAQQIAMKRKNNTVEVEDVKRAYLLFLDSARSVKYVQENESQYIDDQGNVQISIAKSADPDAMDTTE

[2] = biological target: T1, Rvb1/Rvb2 complex (untagged hexamer); assay: native MS
Rvb2 [3] = biological target: T2, Rvb2 (S. cerevisiae, UniProt Q12464 1-471); assay: native MS
T2 sequence (Q12464 whole entry): as the sequence (Q12464 whole entry, one chain of several) above

Rvb2 [4] = biological target: T2, Rvb2; assay: intact denatured mass spectrometry

Binder | stoichiometry N [1] | stoichiometry N [2] | stoichiometry N (Rvb2 [3]) | stoichiometry N (Rvb2 [4])
B1 | ≥ 2 copies of Ino80INS per Rvb1/Rvb2 dodecamer | 3 copies of Ino80INS per Rvb1/Rvb2 dodecamer and 1 copies of MBP-Ino80INS per Rvb1/Rvb2 hexamer and 2 copies of Ino80INS per Rvb1/Rvb2 dodecamer | – | –
B2 | – | – | 1 Rvb1 per Rvb2 (3:3 in the hexamer) | 1 Rvb1 per Rvb2 (3:3)
